Source: patent US20230136301A1, “Corticosteriod Reduction in Treatment with Anti-CD38 Antibody” (Janssen Biotech, Inc., priority 2021, published 2023)
“And” between values parts separate entries of the source, which are not always exact repeats. Identical values can stand only once.

Assays:
[1] = tested on: patients with RRMM; details: PAVO Part 2; follow-up 14.2 months; cited from earlier work
[2] = tested on: patients with RRMM; assay: PAVO Part 3: treatment-emergent adverse events with DARA SC and corticosteroid tapering
Method: The PAVO (MMY1004) trial is an open-label, nonrandomized, multicenter, phase lb study consisting of 3 parts. […] Safety was assessed, with an emphasis on IRRs, while corticosteroids were reduced and discontinued.
The purpose of Part 3 was to evaluate the safety of daratumumab 1,800 mg SC delivery without predose and postdose corticosteroids after a 3-week, 2-week, and 1-week tapering schedule to assess the safety of corticosteroid-free SC daratumumab administration. A total of 42 participants were treated. […] In conjunction, patients also received a 3-week, 2-week, or 1-week steroid tapering schedule (FIG. 2). The 3-week tapering schedule (corticosteroid-free by Cycle 1 Day 22) consisted of methylprednisolone (MP) given orally (PO)/IV pre-dose (Cycle 1 Day 1, 100 mg; Cycle 1 Day 8, 60 mg; Cycle 1 Day 15, 30 mg) and PO post-dose (Cycle 1 Day 1, 20 mg for 2 days; Cycle 1 Day 8, 20 mg for 1 day; Cycle 1 Day 15, 20 mg for 1 day). The 2-week tapering schedule (corticosteroid-free by Cycle 1 Day 15) consisted of MP given PO/IV pre-dose (Cycle 1 Day 1, 100 mg; Cycle 1 Day 8, 60 mg) and PO post-dose (Cycle 1 Day 1, 20 mg for 2 days; Cycle 1 Day 8, 20 mg for 1 day). The 1-week tapering schedule (corticosteroid-free by Cycle 1 Day 8) consisted of dexamethasone 20 mg administered IV pre-dose on Cycle 1 Day 1, without post-dose administration.
The 3-week, 2-week and 1-week steroid tapering schedules were assessed by “3+3” design, followed by cohort expansion to approximately 15 patients (3-week and 2-week tapering cohorts) or 12 patients (1-week tapering cohort). The dose-limiting toxicity (DLT) assessment period in the 3-week, 2-week and 1-week tapering cohorts were Cycle 1 Day 1 through Cycle 2 Day 4, Cycle 1 Day 1 through Cycle 1 Day 25, and Cycle 1 Day 1 through Cycle 1 Day 11, respectively. […] Grade 3 or 4 IRRs only qualified as DLTs if they occurred during corticosteroid reduction or discontinuation (not during Cycle 1 Day 1). For the 3-week and 2-week groups, IRRs reported at Cycle 1 Day 1 were not considered DLTs, as corticosteroids had not yet been reduced or discontinued. Up to approximately 12 patients could be enrolled in the 1-week tapering schedule to assess safety, including IRRs.
Safety assessments included treatment-emergent adverse events (TEAEs), serious adverse events, and IRRs. All toxicities were graded according to the National Cancer Institute's Common Terminology for the Classification of Adverse Events (NCI-CTCAE) Version 4.03 (National Cancer Institute. Common Terminology Criteria for Adverse Events (CTCAE): Version 4.03.).
The safety and efficacy populations, defined as all patients who received ≥1 dose of study drug, was the primary population for analysis. […] The pharmacokinetic-evaluable population was defined as all patients who received ≥1 dose of study drug and provided ≥1 post-infusion pharmacokinetic sample. The immunogenicity population was defined as all patients who received ≥1 dose of study drug and provided ≥1 post-infusion immunogenicity sample.

DARA SC: 1,800 mg daratumumab co-formulated with 30,000 U rHuPH20 (2,000 U/mL, 15 mL), manual subcutaneous injection
Median duration of response [1]: 15.7 months | ORR [1]: 52% | Grade ≥3 TEAEs, participants ([2]; 1-week taper): 33.3% | Nausea, participants ([2]; 1-week taper): 16.7% | Nervous system disorders ([2]; 1-week taper): 16.7% | Anemia, any grade TEAE ([2]; 1-week taper n=12): 4 (33.3) n (%) and 4 (33.3%) n (%) | Anemia, grade ≥3 TEAE ([2]; 1-week taper n=12): 2 (16.7%) n (%) and 2 (16.7) n (%) | Any TEAE ([2]; 1-week taper n=12): 12 (100)^ n (%) and 12 (100.0%) n (%) | Any grade ≥3 TEAE ([2]; 1-week taper n=12): 4 (33.3) n (%) and 4 (33.3%) n (%) | Arthralgia, any grade TEAE ([2]; 1-week taper n=12): 3 (25.0) n (%) and 3 (25.0%) n (%) | Asthenia, any grade TEAE ([2]; 1-week taper n=12): 4 (33.3) n (%) and 4 (33.3%) n (%) | Back pain, TEAE ([2]; 1-week taper n=12): 2 (16.7%) n (%) | Blood and lymphatic system disorders (SOC), TEAE ([2]; 1-week taper n=12): 4 (33.3%) n (%) | Blood and lymphatic system disorders (SOC), grade 3 or higher TEAE ([2]; 1-week taper n=12): 2 (16.7%) n (%) | Bone pain, TEAE ([2]; 1-week taper n=12): 2 (16.7%) n (%) | Bone pain, grade ≥3 TEAE ([2]; 1-week taper n=12): 1 (8.3) n (%) and 1 (8.3%) n (%) | Chills, TEAE ([2]; 1-week taper n=12): 2 (16.7%) n (%) | Constipation, TEAE ([2]; 1-week taper n=12): 2 (16.7%) n (%) | Cough, any grade TEAE ([2]; 1-week taper n=12): 0 n (%) | Decreased appetite, TEAE ([2]; 1-week taper n=12): 1 (8.3%) n (%) | Diarrhea, any grade TEAE ([2]; 1-week taper n=12): 4 (33.3) n (%) and 4 (33.3%) n (%) | Dizziness, any grade TEAE ([2]; 1-week taper n=12): 0 n (%) | Erythema, any grade TEAE ([2]; 1-week taper n=12): 0 n (%) | Fatigue, any grade TEAE ([2]; 1-week taper n=12): 1 (8.3) n (%) and 1 (8.3%) n (%) | Gastrointestinal disorders (SOC), TEAE ([2]; 1-week taper n=12): 8 (66.7%) n (%) | General disorders and administration site conditions (SOC), TEAE ([2]; 1-week taper n=12): 9 (75.0%) n (%) | Headache, any grade TEAE ([2]; 1-week taper n=12): 1 (8.3) n (%) and 1 (8.3%) n (%) | Lymphopenia, grade ≥3 TEAE ([2]; 1-week taper n=12): 1 (8.3) n (%) and 1 (8.3%) n (%) | Metabolism and nutrition disorders (SOC), TEAE ([2]; 1-week taper n=12): 1 (8.3%) n (%) | Muscle spasms, any grade TEAE ([2]; 1-week taper n=12): 3 (25.0) n (%) | Musculoskeletal and connective tissue disorders (SOC), TEAE ([2]; 1-week taper n=12): 8 (66.7%) n (%) | Musculoskeletal and connective tissue disorders (SOC), grade 3 or higher TEAE ([2]; 1-week taper n=12): 1 (8.3%) n (%) | Nasopharyngitis, any grade TEAE ([2]; 1-week taper n=12): 1 (8.3) n (%) and 1 (8.3%) n (%) | Nausea, any grade TEAE ([2]; 1-week taper n=12): 2 (16.7) n (%) and 2 (16.7%) n (%) | Nervous system disorders (SOC), TEAE ([2]; 1-week taper n=12): 2 (16.7%) n (%) | Neutropenia, grade ≥3 TEAE ([2]; 1-week taper n=12): 0 n (%) | Oropharyngeal pain, TEAE ([2]; 1-week taper n=12): 0 n (%) | Pain in extremity, any grade TEAE ([2]; 1-week taper n=12): 3 (25.0) n (%) and 3 (25.0%) n (%) | Patients with a serious TEAE ([2]; 1-week taper n=12): 4 (33.3%) n (%) | Peripheral edema, any grade TEAE ([2]; 1-week taper n=12): 4 (33.3) n (%) and 4 (33.3%) n (%) | Pyrexia, any grade TEAE ([2]; 1-week taper n=12): 3 (25.0) n (%) and 3 (25.0%) n (%) | Respiratory, thoracic and mediastinal disorders (SOC), TEAE ([2]; 1-week taper n=12): 1 (8.3%) n (%) | Skin and subcutaneous tissue disorders (SOC), TEAE ([2]; 1-week taper n=12): 0 n (%) | Vomiting, TEAE ([2]; 1-week taper n=12): 2 (16.7%) n (%) | TEAEs with an outcome of death ([2]; 1-week taper, neither treatment-related): 2 participants | Grade 5 TEAEs ([2]; 1-week taper, staphylococcal pneumonia and pulmonary embolism): 2 (16.7%) n (%) | Grade ≥3 TEAEs, participants ([2]; 2-week taper): 53.3% | Nausea, participants ([2]; 2-week taper): 20% | Nervous system disorders ([2]; 2-week taper): 26.7% | TEAEs with an outcome of death ([2]; 2-week taper): No deaths | Anemia, any grade TEAE ([2]; 2-week taper n=15): 2 (13.3) n (%) and 2 (13.3%) n (%) | Anemia, grade ≥3 TEAE ([2]; 2-week taper n=15): 1 (6.7) n (%) and 1 (6.7%) n (%) | Any TEAE ([2]; 2-week taper n=15): 15 (100)^ n (%) and 15 (100.0%) n (%) | Any grade ≥3 TEAE ([2]; 2-week taper n=15): 8 (53.3) n (%) and 8 (53.3%) n (%) | Arthralgia, any grade TEAE ([2]; 2-week taper n=15): 4 (26.7) n (%) and 4 (26.7%) n (%) | Asthenia, any grade TEAE ([2]; 2-week taper n=15): 2 (13.3) n (%) and 2 (13.3%) n (%) | Back pain, TEAE ([2]; 2-week taper n=15): 3 (20.0%) n (%) | Blood and lymphatic system disorders (SOC), TEAE ([2]; 2-week taper n=15): 3 (20.0%) n (%) | Blood and lymphatic system disorders (SOC), grade 3 or higher TEAE ([2]; 2-week taper n=15): 3 (20.0%) n (%) | Bone pain, TEAE ([2]; 2-week taper n=15): 3 (20.0%) n (%) | Bone pain, grade ≥3 TEAE ([2]; 2-week taper n=15): 1 (6.7) n (%) and 1 (6.7%) n (%) | Chills, TEAE ([2]; 2-week taper n=15): 1 (6.7%) n (%) | Constipation, TEAE ([2]; 2-week taper n=15): 3 (20.0%) n (%) | Cough, any grade TEAE ([2]; 2-week taper n=15): 4 (26.7) n (%) and 4 (26.7%) n (%) | Decreased appetite, TEAE ([2]; 2-week taper n=15): 1 (6.7%) n (%) | Diarrhea, any grade TEAE ([2]; 2-week taper n=15): 3 (20.0) n (%) and 3 (20.0%) n (%) | Dizziness, any grade TEAE ([2]; 2-week taper n=15): 1 (6.7) n (%) and 1 (6.7%) n (%) | Erythema, any grade TEAE ([2]; 2-week taper n=15): 4 (26.7) n (%) and 4 (26.7%) n (%) | Fatigue, any grade TEAE ([2]; 2-week taper n=15): 4 (26.7) n (%) and 4 (26.7%) n (%) | Gastrointestinal disorders (SOC), TEAE ([2]; 2-week taper n=15): 7 (46.7%) n (%) | General disorders and administration site conditions (SOC), TEAE ([2]; 2-week taper n=15): 10 (66.7%) n (%) | Headache, any grade TEAE ([2]; 2-week taper n=15): 1 (6.7) n (%) and 1 (6.7%) n (%) | Lymphopenia, grade ≥3 TEAE ([2]; 2-week taper n=15): 0 n (%) | Metabolism and nutrition disorders (SOC), TEAE ([2]; 2-week taper n=15): 4 (26.7%) n (%) | Muscle spasms, any grade TEAE ([2]; 2-week taper n=15): 0 n (%) | Musculoskeletal and connective tissue disorders (SOC), TEAE ([2]; 2-week taper n=15): 9 (60.0%) n (%) | Musculoskeletal and connective tissue disorders (SOC), grade 3 or higher TEAE ([2]; 2-week taper n=15): 1 (6.7%) n (%) | Nasopharyngitis, any grade TEAE ([2]; 2-week taper n=15): 5 (33.3) n (%) and 5 (33.3%) n (%) | Nausea, any grade TEAE ([2]; 2-week taper n=15): 3 (20.0) n (%) and 3 (20.0%) n (%) | Nervous system disorders (SOC), TEAE ([2]; 2-week taper n=15): 4 (26.7%) n (%) | Neutropenia, grade ≥3 TEAE ([2]; 2-week taper n=15): 3 (20.0) n (%) and 3 (20.0%) n (%) | Oropharyngeal pain, TEAE ([2]; 2-week taper n=15): 3 (20.0%) n (%) | Pain in extremity, any grade TEAE ([2]; 2-week taper n=15): 1 (6.7) n (%) and 1 (6.7%) n (%) | Patients with a serious TEAE ([2]; 2-week taper n=15): 6 (40.0%) n (%) | Peripheral edema, any grade TEAE ([2]; 2-week taper n=15): 0 n (%) | Pyrexia, any grade TEAE ([2]; 2-week taper n=15): 2 (13.3) n (%) and 2 (13.3%) n (%) | Respiratory, thoracic and mediastinal disorders (SOC), TEAE ([2]; 2-week taper n=15): 8 (53.3%) n (%) | Skin and subcutaneous tissue disorders (SOC), TEAE ([2]; 2-week taper n=15): 5 (33.3%) n (%) | Vomiting, TEAE ([2]; 2-week taper n=15): 2 (13.3%) n (%)
